# Assay: soluble on expression in E. coli; label from the status in PepcDB or PDB records
row,Sequence,soluble on expression in E. coli
1,MGSDKIHHHHHHMDSKHSMISLKQKLSGLLDVIPKQSEIIYADYPLYGNVGDLFIMKGTEAFFKEHGIRVRKRWNPDNFPIGRKLDPNLIIVCQGGGNFGDLYPYYQGFREKIVQTYPNHKIVILPQSIYFQNKDNLKRTAEIFSKHANLHIMTREKASYATAQAYFTTNHIQLLPDMAHQLFPVIPTQQPSNQKLRFIRTDHEANQALQEHAEAESYDWRTVLSASDRRTIAFLQTLNVLNKKAGNPLPIAYIWEKYSDYIVQKAIRFFSRYESVETSRLHGHILSSLLQKENTVIDNSYGKNANYFHTWMEGVPSTRLIQHASKKENLPAHM,not soluble
2,MGHHHHHHSHALPAGEWGTVQLRGSWRVGQTAGGSRNFASYPTNPCFPFSVPEGPGPRCVRITLHQHCRPSDTEFHPIGFHIFQVPEGGRSQDAPPLLLQEPLLSCVPHRYAQEVSRLCLLPAGTYKVVPSTYLPDTEGAFTVTIATRIDRPSIHSQEMLGQFLQEVSVMAVMKT,soluble
3,MSDALDDENVLCFRYKSYYIKDDGSRIDTLNEERIKHIVDFTLDKYLDATQNTPKFDNFENPVKEGFNSIFACESKEAAIEYYKEFKKQIEQKKLPIKIASIIAQTKVVMNKKLV,soluble
4,MEPDLKNVKNAGTGESNKDEIKNTNASRRSGRKVKTIIEEDPNINKKMELPPTLMPKFPSQKIIKQQKSPDKNEPPPARPVEQTEENEENNADEKEKHEIFWQEGVIEECQGREDEGEVPKEQEEHAHVSPDPTSLNDKKSKFEKPNLEPGKPEKPEKLDKPLAKPLPPPSAAPPPVAPLSAPVPSTGAPPSAVPPADKKMSKQSTRDKKSGRSTDRNIHKKKDVAALDENKKSPEDKKKDAGTKKGSTEDASTDNLNNGKVQSRRKSKRQKKSIFQQPVQRTPGSHPSAYLQPTRARTERSLKLPPAEPKSVDERPRKPSTQILQPQQPNRGGQVQKQPSKVVLQPGAPGATPVASTPNQREQAQQQQQQQQKGPMGLFKKIYRKMNFRAASDCTVEPTKEMLAKSYVRPEHNSNDPIDFCPDLPKKLFDEEAWKLRMTNKGANRNEVFLNNRPFWLTRDGTEQIPKVRIQLHRPLKQMHSGNPASIQLKLQRTDPFLDPKEDTLERLKIVDKAIGVDPLDLTKDRELKRVCANTFHGTLMFEVDKRQYDTQQKKAEAEALKLDPKRKNDGKEKDQKSSFEDPKKVAFNVSDKCTLHVYFRKHRPLTNQGKSERFTEKKYTMGERKIMKKGEKPAVPQLVPPTSSSTTSASSSSCRETKKL,not soluble
5,MGSDKIHHHHHHMLDIHWLKTFVTLAEHKHFGKAATALHMTQPNVSLHIKQLEQSTRVKLIDRNPFRLTQAGFRLLESSQKTLMELQICQADLNAINDLSQGTLTIAASDIISRLLLIQPFQLFKAEFPGIDFSLLNTTSSQASELVKNAEADLGFVIAQKESQPLHFTELQQIKWCAIGDNLQQWQQANLSVDTPLAEQPTLILLGHDTRTRELLDPALPSLNLPNYRIMEVGSVDAQIDWAEAGFGVAIVPEFSVYTKANLTTKVTPLPQFPTTSLGYIVRQNQILSKAIKQLLYWVNQEIIRSQR,not soluble
6,MKKVILFMAGILASMMLNAQSRWSVTPEAGLVVNKENEGTSVTLGFKAGAGVLYQLKEGVGKKPSFGLKSGVYILMQKGGYHPMSWGNISTGGGFSMDYEKTNVESTRYYLQLPVMAHWGFKLCDDVRLKLAVGPYVAVGIGGRTNAYVSSSKYNIDEETGVGQYEYRNDYYRFGTFKGKTVNEEFGFEASPRLDWGGTASVGIAVKRISFTVGYDLAWGKYNKEQNDLRIRNHMVSFTSGYSF,not soluble
7,MSLTTRRDFIKKTVAGTAALSLGSIIPGFGSNSYQEILGANEKIRIGVIGVNSRGNALAQGFAKMKGCEVTYLCDVDSRALERCQADIHKISGRTPKGEKDIRKMLESDDFEAVVIATPDHWHGKAAIMAMQAGKHVYLEKPTSHNPAENEMLVRATLKYNRIVQVGNQRRSWPNVIKAIEEIKSGAIGKVRYAKSWYVNNRPSIGTGKVVPVPDYLDWDLWQGPAPRVPNFKDNYIHYNWHWFWNWGTGEALNNGTHFVDILRWGLGVDYPTKVDSVGGRYRFQDDWQTPDTQLITFQFGDEASCSWEGRSCNSTPVDGYGVGTAFYGETGTLFISGGNEYKITDLQGKVIKDVKSNLKFETGNLLNPSEKLDAYHFENWFDAIRKGGKLNSGIVDACISTQLVQLGNIAQRVGHSLDIDPGSGRILNDLEANKLWGREYEKGWEIREGHHHHHH,soluble
8,MTPSKTTLVERCYKYIMSNEKNWSPYTVINRKSWVKNYIEPFFKDTKLIDINPVLIQTFINTTFNNCTFSSSKIRYRFISSVLKEAYRLREINENPCDFVKLPLEHHHHHH,not soluble
9,MGNNTIGARKSTTSKFWKCRSCIASRTTESRNNSIIQQRRNFIIRTKKEIPFPKRGASKDSCGSCHNQKNLIVCHLFLFKNHKKLFF,not soluble
10,FRGFRYNAGVYFDRSRNKLTEFGAEEIGSYSIKREGLPYDEYYMLECIGVFADQAEINASPKQFNDNTQPGDLKYKDISGPDGKPDGVIDNYDRRTFSGRFPGFEYGINASATWKGFDLSLIGQGVADKKYYTTDWGVQPFMQGSSPNKDYIKHMWTEENPYGAKHPKLYWQDMGGGKNTRPNSYYLKDASFFRLKNLTLGYTLPRVWTEKANISKVRIYFSGDNLLTLTPYKGLDPERNGDGRDAIYPQNRIYSFGLNVEF,not soluble
11,MGSDKIHHHHHHMFLAGAFIAVGSLYAQSSDAEWQAGVAKLKETIQTNPAQANEEAEQLIKGKNKKNVELLVAIGEVYLKAGKLPEAQEYAALAKKVNGKSALASVLEGDIAFEQKNAGLASQKYEEAIYFDPSCTEAYLRYADIYKSANAALAIEKLEQLKAQEPSNTAVDKKLAEIYYLKNDFSKAAEAYSRFAMGPTATEEDLVKYAFALFLNHDFEKSLEVANMGLKKNARHAAFNRLAMYNYTDLKRFDEAIKAADAFFTESDKADYSYLDYMYYGHLLEALKKYDEAVGQYEKAIQLDPTKTDLYKNISSAYEQKNDYKKAISAYQKYYTSLDKEHQTPDLQFQFGRLYYGAGTQTDSLTINAEERKQALMAADSVFHSIAEAAPDSYLGNFWRARANSALDPETTLGLAKPFYEEVATLLESKNDPHYNSALIECYSYLGYYYLLAIENPALKAEAMANKEKSKEYWSKILAIDSTNATAKRALDGIK,not soluble
12,MSEAAQTLDGWYCLHDFRTIDWSAWKTLPNEEREAAISEFLALVDQWETTESEKQGSHAVYTIVGQKADILFMILRPTLDELHEIETALNKTKLADYLLPAYSYVSVVELSNYLASGSEDPYQIPEVRRRLYPILPKTNYICFYPMDKRRQGNDNWYMLSMEQRRELMRAHGMTGRKYAGKVTQIITGSVGLDDFEWGVTLFSDDALQFKKLVYEMRFDEVSARFGEFGSFFVGTRLPMENVSSFFHV,soluble
13,GSHMAMAYVIRDEWGNQIWICPGCNKPDDGSPMIGCDDCDDWYHWPCVGIMAAPPEEMQWFCPKCANKIKKDKKH,soluble
14,MGSDKIHHHHHHMFPPDKTLFLCLSALLLASCGTTSGKHRQPKPKQTVRQIQAVRISHIDRTQGSQELMLHSLGLIGTPYKWGGSSTATGFDCSGMIQFVYKNALNVKLPRTARDMAAASRKIPDSRLKAGDLVFFNTGGAHRYSHVGLYIGNGEFIHAPSSGKTIKTEKLSTPFYAKNYLGAHTFFTE,not soluble
15,MSERVSEEPGLDKGDRAEECELDDPELKAIRMRVREMEEEAERLKGLSGQDKSIGVSTRPCMQTTHSKMTAGAYTEGPPQPLSAEEKKEIDKRSVYVGNVDYGSTAQDLEAHFSSCGSINRITILCDKFSGHPKGYAYIEFAERNSVDAAVAMDETVFRGRTIKVLPKRTNMPGISSTDRGGFRGRPRGNRGNYQRGQRPRGRPFRGRGRPGPLNNPY,soluble
16,MGRAFEYRRAAKEKRWDKMSKVFPKLAKAITLAAKDGGSEPDTNAKLRTAILNAKAQNMPKDNIDAAIKRASSKEGNLSEITYEGKANFGVLIIMECMTDNPTRTIANLKSYFNKTQGASIVPNGSLEFMFNRKSVFECLKNEVENLKLSLEDLEFALIDYGLEELEEVEDKIIIRGDYNSFKLLNEGFESLKLPILKASLQRIATTPIELNDEQMELTEKLLDRIEDDDDVVALYTNIELEHHHHHH,soluble
17,MSLEKKTLLTHCPDAPGLISKITNICYKHQLNIIHNNEFVDNASGHFFMRTELEGYFNDATLLADLDHALPQGTRRKLISSSRKRIVILVTKEAHCLGDILMKNYDGSLDVDIAAVVGNYDTLQRLTERFDIPYHCVSHEGLSREAHEQALLDVIDQYQPDYLVLAKYMRVLTPAFVERFHHKIINIHHSFLPAFIGAKPYQQAYERGVKIIGATAHFVTNDLDEGPIIKQDVIPVDHTFSAQDMAQAGRDVEKNVLSKALNKVLNDHVFVYGNKTVILERHHHHHH,soluble
18,MRLRVDVIPGEHLAYPDVVLVVDVIRATTTAAAFLEAGAEALYWTPSLESALAFKDEDVVLAGETGGLKPPRFDLGNSPREALSAQVAGRVVVMSTTNGTKAAHAAARTAKHVLLASLYNAHAAARLARELATEEVAILCAGKEGRAGLDDLYTAGVLAEYLGFLGEVEPEDGARVALAVKRAYPDPLEALSLSAAALALKQVGLEADVPFCAQVAKSAAVPVLRGRVGEALIFKRA,soluble
19,MVVFVASSRWDPSPDVIGQLCCLVSGGRSVPSTALKLGLSLSAAYRLAREYQLPVRVQTSTSASVTKSIETLWKQDVKPSDISTRLNVGTSVVYRIGIELGLWQRNPHGRRASATSRRCEYVMLRFGAMSRKDTAKVVGINPRETLDIDKGVTKLNGVGRVPCVPDEPDTELYKRLMQVVPYVDGRQAVPVEVIPQHAIDKRMSPR,not soluble
20,MGSDKIHHHHHHMDYRKIIKEIGRGKNHARDLDLDTARGLYTRMLNGDVPDLEMGSILMALRIKGEGEAEMLGFYEAMQNHTIKLTPPADRPLPVVIPSYNGARKQANLTPLLAILLHKLGFPVVVHGVSEDPTRVLTETIFELMGIIPTLHGGQAQAKLDGRQPVFIPVSALCPPLEKQLAMRWRMGVRNSAHSLAKLATPFAEDAALRLSSVSHPEYVPRVATFFSRIGGRALLMHGTEGEVYANPQRCPQISLIDSRGVQVLHERQSDTYDEPLSLPATKDPEITARWIERCLAGHEPVPQSLKTQMACCLVATGEAATLEDGLARVEQAFSE,not soluble
21,MTNAKPENALAAIGIARKELDADRYILISSDLVYTPSNDPKAEDSRTEPITDEGRIFLTAESLMNQERDAIFRTGFIIGLCSVNLYTNVLNMVRSGMRLSLSKSTIRNFIRNADLSSFIMRSIERNISGVYNVASDASTAYDFAKRLCDMAGLKCTLEDSGEDLGNYTMDTSRSLKTFGMRPMSVFEGYTISGSFDLR,not soluble
22,MTEYNIGAKIKKLRLAKKLTLQAVARETGFSPALISQIENNNVSPPIATLSKIAKFFDVKISLFFSEDEEEYRYEVVRRGERKVIPRVISRAGTSQGYSYESLSFRKQNKKMEPFLLTVTEKAAEENTYNHDGEEFLFVMKGTAELLLEDERVILEEGDCVYFDSSLKHRLLSRDGSEVQVLAVVTR,not soluble
23,MNKIRYPAVAGLFYPSHPDELIDMIEQCYLHKFGPKSMPVHGTYEKPIGLLCPHAGYVYSGPIQAHSYYELSKRVDALEETTVVILGPNHTGLGSGVSVMDGIWRTPLGDVKCDEEFVEELWRKCEIVDLDETAHLNEHSIEVQLPFLKHLELLNIAKFKIVPICMMFQDYETAVEVGYFIAKIAKELNRRIVVIASSDLTHYEPQEIASKKDAIVIKDILEMNEKELYEDVVNYNISMCGYGPVIAMLKAMKTLGAEKAKLLAYATSGDITGDYSAVVGYASAIVELEHHHHHH,soluble
